# Results reported in patent US20240376222A1 (University of Texas, published 2024).
# Substitutions are numbered along the chain they refer to. Where two headings read alike, the source gives them in different places.
# B1: muTfR Ab4 (antibody, V domains shown)
# VH: EVQLVESGGGLVKPGGSLRLSCAASGFTFSWYTMNWVRQAPGKGLEWVSSISSSSSDMYYADSVKGRFTISRDNAKNSLYLQIDSLRAEDTAVYYCARAHYYDSTSLNHFYGMDVWGQGTTVTVSS
# VL: QSVLTQPPSVSVAPGKTARITCGGNNIGSRTVHWYQQRPGQAPMLVVSDDNDRPSGIPERFSGSNSGNTATLTITRVEAGDEADYYCQVWDSSSDHLVFGGGTQLTVL
# modifications: Biotinylated when used as the probe in the competition ELISA; the sites are not stated and the letters do not carry them.
# notes: also called anti-muTfR Ab4; biotinylated Ab4
# B2: 5B6 (antibody, V domains shown)
# VH: PVLLVQSGAEVKKPGSSVKVSCKASGGTFSSYAISWVRQAPGQGLEWMGGIIPIFGTANYAQKFQGRVTITADESTSTAYMELSSLRSEDTAVYYCAVSIFGVVIPLDYWGQGTLVIVSS
# VL: QPVLTQSPSVSLAPGQTAKITCGGTNIGRKSVHWYQQKPGQAPVMVIYYDSDRPSGIPERFAGSNSGNTATLTISRVEAGDEAVYYCQVWDSSSASGVFGGGTKVTVL
# notes: Human IgG1, converted from a phage scFv clone
# B3: 8A5 (antibody, V domains shown)
# VH: QVQLVQSGAEVKKPGESLRISCKGSGYSFTSYWISWVRQMPGKGLEWMGRIDPSDSYTNYSPSFQGHVTISADKSISTAYLQWSSLKASDTAIYYCARARTWFDAFDIWGQGTTVTVSS
# VL: QAVVTQPPSASGTPGQRVTISCSGGSSNIGRYSVNWYQQLPGTAPKLLINSNIQRPSGVPDRFSGSKSGTSASLAISGLQSEDEADYHCAAWDDSLKGWVFGGGTKVTVL
# notes: as for B2
# B4: 7A1 (antibody, V domains shown)
# VH: QVQLVQSGAEVKKPGSSVKVSCKASGGTFSSYAISWVRQAPGQGLEWMGGIIPIFGTANYAQKFQGRVTITADESTSTAYMELSSLRSEDTAVYYCARSGYYNDAFDIWGQGTMVTVSS
# VL: QSALTQPASVSGSPGQSITISCTGTNSDIGGYNYVSWYQQHPGKAPKLMIYEVSNRPSGVSNRFSGSKSGNTASLTISGLQAEDEAHYYCSSYTSSSTLVFGGGTKVTVL
# notes: as for B2
# B5: 1C8 (antibody, V domains shown)
# VH: B4 VH with V18M, N59K, S77T, R87S, G100L, Y101G, Y102W, N103Y, D104Y
# VL: DIVMTQSPSTLSASVGDRVTITCRASQNINNWLAWYQQKPGKAPKLLIYKASTAESGVPSRFSGSGFGTEFTLTISSLQPDDFASYYCQQYKNYPYSNLYTFGQGTKVDIK
# notes: as for B2
# B6: 4G1 (antibody, V domains shown)
# VH: EVQLLESGGGLIQPGGSLRLSCAASGFSVSSYYMNWVRQAPGKGLEWVSNTYTDGSTSYADSVGGRFSVSRDNSKNTLHLQMNSLRVEDTAVYYCAREGDGYNSGGLDYWGQGTLVTVSS
# VL: DIQLTQSPASLSASLGDRVTITCRASQSIGTYLNWYQQRPGQAPKLLIFGTSSLQSGVPSRFSGSGSGTDFTLTISSLQPEDLATYYCQQTYITPRTFGQGTKVEIK
# notes: as for B2
# B7: Ab1 (antibody, V domains shown)
# VH: QVQLMQSGAEVKKPGSSVKVSCKASGGTFSSYAISWVRQAPGQGLEWMGRIIPILGIANYAQKFQGRVTITADKSTSTAYMELSSLRSEDTAVYYCARDRDTMVRGGMDVWGQGTMVTVSS
# VL: QSALNQPPSASGSPGQSVTISCTGTGSDIGGHNYVSWYQQHPGKAPKLMIYDVSKRPSRVPDRFSGSKSGNTASLTVSGLQAEDEADYYCSSYAGSNVVFGAGTKVTVL
# B8: Ab59 (antibody, V domains shown)
# VH: QVQLVESGGGVVQPGRSLRLSCAASGFTFSSYAMHWVRQAPGKGLEWVAVISYDGSNKYYADSVKGRFTISRDNSKNTLYLQMNSLRAEDTAVYYCARGGPYYDFWSDGMDVWGQGTMVTVSS
# VL: QSVLTQPHSVSESPGKTVTISCTRSSGSIASNYVQWYQQRPGSSPTTVIYEDNQRPSGVPDRFSGSIDSSSNSASLTISGLKTEDEADYYCQSYDSSNYVFGTGTKVTVL
# B9: Ab42 (antibody, V domains shown)
# VH: QVQLVQSGAEVKKPGSSVKVSCKASGGTFSSYAISWVRQAPGQGLEWMGGIIPIFGTANYAQKFQGRVTITADESTSTAYMELSSLRSEDTAVYYCARGATRGMDVWGQGTLVTVSS
# VL: DIVMTQSPSSLSASVGDRVTITCRASQSISNFLNWYQQKPGKAPKLLIYAASSLQSGVPSRFSGSRSGTDFTLTISSLQPEDFATYYCQQSSSIPLTFGGGTKLEIK
# B10: 1B2 (antibody, V domains shown)
# VH: QVQLVQSGAEVKKPGESLRISCKGSGYSFTSYWISWVRQMPGKGLEWMGRIDPSDSYTNYSPSFQGHVTISADKSISTAYLQWSSLKASDTAMYYCARHPLAYCGGDCQRGFDYWGQGTLVTVSS
# VL: QPVLTQPPSVSVSPGQTARITCSGDKLREDLTSWYQQKPGQSPVLVIYQDSKRPSGIPARFSGSISGSTATLTISGTQAVDEADYYCQAWDNSVDYVFGTGTKVTVL
# notes: as for B2
# B11: Ab2 (antibody, V domains shown)
# VH: QVQLVQSGAEVKKPGSSVKVSCKASGGTFSSYAISWVRQAPGQGLEWMGGIIPIFGTANYAQKFQGRVTITADESTSTAYMELSSLRSEDTAVYYCARFAFFSLASEDYWGQGTLVIVSS
# VL: not shown
# B12: 8G5 (antibody, V domains shown)
# VH: QVQLVQSGAEVKKPGASVKVSCKASGYTFTSYGISWVRQAPGQGLEWMGWISAYNGNTNYAQKLQGRVTMTTDTSTSTAYMELRSLRSDDTAVYYCARVGYYYYGMDVWGQGTTVTVSS
# VL: QSVLTQPPSVSGAPGQRVTISCTGSSSNIGAGFDVHWYQQLPGTAPKLLIYANSNRPSGVPDRFSASKSGTSASLAITGLQAEDEADYYCQSYDRSLSGYVFGSGTKVTVL
# notes: as for B2
# B13: Ab30 (antibody, V domains shown)
# VH: EVQLVQSGGGLAQPGGSLRLSCAASGFTFSIYSMNWVRQAPGKGLEWVSYIGGGGTSIYYADSVKGRFTISRDNAKNSLSLQMNSLRAEDTGVYYCARGKPATGFDYWGQGTLVSVSS
# VL: QSVLTQPRSVSGSPGQSVTISCTGTSSDVGGYNYVSWYQQHPGKAPKLMISEVSKRPSGVPDRFSGSKSGNTASLTVSGLQAEDEADYYCSSYAGGYTPYVFGTGTKVTVL
# B14: Ab5 (antibody, V domains shown)
# VH: QVQLVESGGGLVQPGRSLRLSCAASGFTFDDYAMHWVRQAPGKGLEWVSGISWNSGSIGYADSVKGRFTISRDNAKNSLYLQMNSLRAEDTALYYCAKVSSQSGSVAGFDYWGQGTLVSVSS
# VL: QPVLTQPPSASGTPGQRVTISCSGSSSNIGANYVYWYQQLPGTAPKLLIYRNNQRPSGVPDRFSGSKSGTSASLAIGGLRSEDEADYYCAGWDDSLSGVLFGGGTKVTVL
# B15: 7B10 (antibody, V domains shown)
# VH: QVQLVQSGAEVKKPGASVKVSCKASGYTFTSYGISWVRQAPGQGLEWMGWISAYNGNTNYAQKLQGRVTMTTDTSTSTAYMELRSLRSDDTAVYYCARDQKLLHILYYYGMDVWGQGTTVIVSS
# VL: DIVMTQSPLSLSVTPGEPASISCRSSQSLLHSNGNNYLDWYLQKPGQSPQLLIYLGSNRASGVPDRFSGSGSGTDFSLKINKVEAEDVGVYYCMQALQTAYTFGQGTKLEIK
# notes: as for B2
# Columns and labels:
# [1] = target: T1, muTfR extracellular domain (ECD), His-tagged (mouse, UniProt Q62351 89-763); assay: BLI (Octet), IgG on Protein A sensor, muTfR-ECD-His in solution, 1:1 global fit
# T1 construct: extracellular domain; Bought protein (Sino Biological); also called muTfR-His; muTfR ECD
# Text: FIG. 3. Illustrates the Kinetics and binding affinities of murine transferrin receptor (TfR) antibodies and represents the kinetic binding graphs determined using BLI method with Octet 96-Red instrument. Protein A sensors (Fortebio) were used to capture anti-TfR IgG. Individual purified TfR antibodies were loaded onto Protein A sensors and subject to a solution flow containing muTfR-ECD-His at designated concentrations: (indicated by the colored lines under each graphs) and for a defined time (shown in X-axis). After binding, the sensors were incubated in blank kinetics buffer to allow free dissociation of TfR for designated time.
# FIG. 4: Illustrates the binding kinetics parameters were calculated by the software from Fortebio (version 11) using 1:1 binding model with global fitting. KD is calculated by kdis/kon as determined from the FIG. 3 data.
# [2] = target: T2, cynomolgus TfR extracellular domain (ECD) (cynomolgus); assay: Octet BLI, serial dilution of antigen
# T2 chain: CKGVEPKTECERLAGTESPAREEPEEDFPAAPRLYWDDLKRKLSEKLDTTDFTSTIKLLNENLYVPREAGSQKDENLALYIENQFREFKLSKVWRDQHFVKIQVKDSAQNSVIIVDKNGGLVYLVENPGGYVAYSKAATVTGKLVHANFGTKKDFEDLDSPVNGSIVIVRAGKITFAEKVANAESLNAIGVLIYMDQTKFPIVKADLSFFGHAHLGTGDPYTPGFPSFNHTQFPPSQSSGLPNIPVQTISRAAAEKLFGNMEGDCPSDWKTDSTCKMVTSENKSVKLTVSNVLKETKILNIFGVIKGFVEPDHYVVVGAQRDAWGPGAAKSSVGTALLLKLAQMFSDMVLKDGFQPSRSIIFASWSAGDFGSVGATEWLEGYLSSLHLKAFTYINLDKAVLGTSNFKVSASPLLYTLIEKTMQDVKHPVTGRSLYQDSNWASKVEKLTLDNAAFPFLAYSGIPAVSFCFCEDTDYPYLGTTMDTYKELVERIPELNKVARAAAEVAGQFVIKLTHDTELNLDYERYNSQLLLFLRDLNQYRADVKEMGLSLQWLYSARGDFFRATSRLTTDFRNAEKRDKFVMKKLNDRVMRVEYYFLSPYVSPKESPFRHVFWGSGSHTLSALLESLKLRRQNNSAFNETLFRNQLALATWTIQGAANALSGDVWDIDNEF
# [3] = target: T3, human TfR extracellular domain (ECD) (human, UniProt P02786 89-760); assay: Octet BLI, serial dilution of antigen
# T3 construct: extracellular domain; Bought protein; also called HuTfR; huTfR
# [4] = target: T3, human TfR extracellular domain (ECD); assay: phage ELISA, scFv phage on coated TfR, anti-M13-HRP, single point
# [5] = target: T3, human TfR extracellular domain (ECD); assay: as above; remark: listed apart in the source
# [6] = target: T3, human TfR extracellular domain (ECD); assay: BLI (Octet), IgG on Protein A sensor, huTfR-ECD-His in solution, 1:1 global fit
# Method: FIG. 1. Illustrates the Kinetics and binding affinities of human transferrin receptor (TfR) antibodies and represents the kinetic binding graphs determined using BLI method with Octet 96-Red instrument. Protein A sensors (Fortebio) were used to capture anti-TfR IgG. During all incubation steps, sample temperature was set to room temperature with 1000 rpm shaking. Individual purified TfR antibodies were loaded onto sensors. After antibody capture, the antibody-loaded sensors were subject to a solution flow containing huTfR-ECD-His at designated concentrations: (indicated by the colored lines under each graphs) and for a defined time (shown in X-axis). After binding, the sensors were incubated in blank kinetics buffer to allow free dissociation of TfR for designated time. The binding kinetics parameters were calculated by the software from Fortebio (version 11) using 1:1 binding model with global fitting.
# T1 sequence (Q62351 89-763): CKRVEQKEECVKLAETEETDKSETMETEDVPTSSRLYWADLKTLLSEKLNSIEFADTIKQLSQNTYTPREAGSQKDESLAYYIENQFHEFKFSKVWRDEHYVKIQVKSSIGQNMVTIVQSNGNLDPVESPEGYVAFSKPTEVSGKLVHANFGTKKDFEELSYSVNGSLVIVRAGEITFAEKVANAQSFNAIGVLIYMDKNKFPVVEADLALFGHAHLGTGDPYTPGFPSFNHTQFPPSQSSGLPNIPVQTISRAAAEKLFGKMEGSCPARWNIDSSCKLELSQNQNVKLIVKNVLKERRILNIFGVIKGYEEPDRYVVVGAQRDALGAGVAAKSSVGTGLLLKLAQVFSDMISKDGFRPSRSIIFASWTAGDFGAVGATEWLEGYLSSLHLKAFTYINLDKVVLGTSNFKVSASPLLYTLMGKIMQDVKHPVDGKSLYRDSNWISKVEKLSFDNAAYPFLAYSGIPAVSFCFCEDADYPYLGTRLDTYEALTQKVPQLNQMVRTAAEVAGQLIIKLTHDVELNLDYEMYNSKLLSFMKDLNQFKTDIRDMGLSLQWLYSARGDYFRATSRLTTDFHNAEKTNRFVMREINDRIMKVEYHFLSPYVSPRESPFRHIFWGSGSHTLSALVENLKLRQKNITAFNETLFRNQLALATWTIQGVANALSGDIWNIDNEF
binder,measurement,setting,value
B1,Kd,[1],5.03 nM
same,koff,[1],0.000391 s⁻¹
same,kon,[1],77700 M⁻¹ s⁻¹
B2,Kd,[2],< 0.001 nM
same,koff,[2],< 1e-07 s⁻¹
same,kon,[2],87900 M⁻¹ s⁻¹
same,Kd,[3],0.575 nM
same,koff,[3],2.98e-05 s⁻¹
same,kon,[3],51800 M⁻¹ s⁻¹
B3,binding result,[4],binds
B4,binding result,[4],binds
B5,binding result,[5],binds
B6,Kd,[2],< 0.001 nM
same,koff,[2],< 1e-07 s⁻¹
same,kon,[2],94500 M⁻¹ s⁻¹
same,Kd,[3],< 0.001 nM
same,koff,[3],< 1e-07 s⁻¹
same,kon,[3],79900 M⁻¹ s⁻¹
B7,Kd,[6],3.46 nM
same,koff,[6],0.000398 s⁻¹
same,kon,[6],115000 M⁻¹ s⁻¹
B8,Kd,[1],2.17 nM
same,koff,[1],0.000162 s⁻¹
same,kon,[1],74900 M⁻¹ s⁻¹
B9,Kd,[1],2.09 nM
same,koff,[1],0.00013 s⁻¹
same,kon,[1],62000 M⁻¹ s⁻¹
B10,binding result,[5],binds
B11,Kd,[1],8.37 nM
same,koff,[1],0.000145 s⁻¹
same,kon,[1],17300 M⁻¹ s⁻¹
B12,binding result,[4],binds
B13,Kd,[6],< 0.001 nM
same,koff,[6],< 1e-07 s⁻¹
same,kon,[6],119000 M⁻¹ s⁻¹
B14,Kd,[1],2.58 nM
same,koff,[1],0.000135 s⁻¹
same,kon,[1],52300 M⁻¹ s⁻¹
B15,binding result,[4],binds
